B1: Protein unc-93 homolog B1 (Homo sapiens), Q9H1C4 (parent)
chain: MEAEPPLYPMAGAAGPQGDEDLLGVPDGPEAPLDELVGAYPNYNEEEEERRYYRRKRLGVLKNVLAASAGGMLTYGVYLGLLQMQLILHYDETYREVKYGNMGLPDIDSKMLMGINVTPIAALLYTPVLIRFFGTKWMMFLAVGIYALFVSTNYWERYYTLVPSAVALGMAIVPLWASMGNYITRMAQKYHEYSHYKEQDGQGMKQRPPRGSHAPYLLVFQAIFYSFFHLSFACAQLPMIYFLNHYLYDLNHTLYNVQSCGTNSHGILSGFNKTVLRTLPRSGNLIVVESVLMAVAFLAMLLVLGLCGAAYRPTEEIDLRSVGWGNIFQLPFKHVRDYRLRHLVPFFIYSGFEVLFACTGIALGYGVCSVGLERLAYLLVAYSLGASAASLLGLLGLWLPRPVPLVAGAGVHLLLTFILFFWAPVPRVLQHSWILYVAAALWGVGSALNKTGLSTLLGILYEDKERQDFIFTIYHWWQAVAIFTVYLGSSLHMKAKLAVLLVTLVAAAVSYLRMEQKLRRGVAPRQPRIPRPQHKVRGYRYLEEDNSDESDAEGEHGDGAEEEAPPAGPRPGPEPAGLGRRPCPYEQAQGGDGPEEQ
partner: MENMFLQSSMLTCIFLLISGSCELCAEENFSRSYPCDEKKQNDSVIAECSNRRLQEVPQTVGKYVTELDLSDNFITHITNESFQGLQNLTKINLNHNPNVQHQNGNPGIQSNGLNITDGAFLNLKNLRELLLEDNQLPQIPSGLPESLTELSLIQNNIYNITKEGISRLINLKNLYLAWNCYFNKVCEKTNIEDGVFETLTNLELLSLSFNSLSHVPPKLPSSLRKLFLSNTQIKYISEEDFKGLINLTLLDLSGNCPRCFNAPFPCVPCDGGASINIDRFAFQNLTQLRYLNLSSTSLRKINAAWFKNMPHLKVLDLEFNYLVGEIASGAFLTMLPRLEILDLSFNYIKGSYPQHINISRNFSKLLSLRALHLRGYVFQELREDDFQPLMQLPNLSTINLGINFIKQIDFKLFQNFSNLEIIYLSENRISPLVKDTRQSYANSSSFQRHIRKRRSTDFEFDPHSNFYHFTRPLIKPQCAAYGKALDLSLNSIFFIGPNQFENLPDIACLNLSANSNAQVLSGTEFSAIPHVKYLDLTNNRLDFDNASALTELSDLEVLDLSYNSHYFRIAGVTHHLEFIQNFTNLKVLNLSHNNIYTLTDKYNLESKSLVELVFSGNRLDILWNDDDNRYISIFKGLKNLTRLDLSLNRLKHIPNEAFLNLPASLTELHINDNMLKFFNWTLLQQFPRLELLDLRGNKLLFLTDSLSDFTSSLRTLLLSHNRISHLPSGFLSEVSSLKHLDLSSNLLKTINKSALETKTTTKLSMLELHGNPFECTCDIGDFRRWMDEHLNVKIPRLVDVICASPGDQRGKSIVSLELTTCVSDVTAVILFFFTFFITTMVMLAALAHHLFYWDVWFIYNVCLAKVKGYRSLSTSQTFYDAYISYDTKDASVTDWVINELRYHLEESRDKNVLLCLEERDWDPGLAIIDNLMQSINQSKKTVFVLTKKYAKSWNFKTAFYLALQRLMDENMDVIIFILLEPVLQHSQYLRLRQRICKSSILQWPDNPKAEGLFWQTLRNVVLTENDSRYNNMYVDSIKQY
B2: Protein unc-93 homolog B1 (Homo sapiens), Q9H1C4 (parent)
chain: B1 chain

Variants of: B1
Details: with tlr8_human TLR8, Q9NR97

effect of a mutation on the interaction | Variant
disrupting interaction strength | MEAEPPLYPMAGAAGPQGDEDLLGVPDGPEAPLDELVGAYPNYNEEEEERRYYRRKRLGVLKNVLAASAGGMLTYGVYLGLLQMQLILHYDETYREVKYGNMGLPDIDSKMLMGINVTPIAALLYTPVLIRFFGTKWMMFLAVGIYALFVSTNYWERYYTLVPSAVALGMAIVPLWASMGNYITRMAQKYHEYSHYKEQDGQGMKQRPPRGSHAPYLLVFQAIFYSFFHLSFACAQLPMIYFLNHYLYDLNHTLYNVQSCGTNSHGILSGFNKTVLRTLPRSGNLIVVESVLMAVAFLAMLLVLGLCGAAYRPTEEIDLRSVGWGNIFQLPFKHVRDYRLRHLVPFFIYSGFEVLFACTGIALGYGVCSVGLERLAYLLVAYSLGASAASLLGLLGLWLPRPVPLVAGAGVRLLLTFILFFWAPVPRVLQHSWILYVAAALWGVGSALNKTGLSTLLGILYEDKERQDFIFTIYHWWQAVAIFTVYLGSSLHMKAKLAVLLVTLVAAAVSYLRMEQKLRRGVAPRQPRIPRPQHKVRGYRYLEEDNSDESDAEGEHGDGAEEEAPPAGPRPGPEPAGLGRRPCPYEQAQGGDGPEEQ [H412R]

Variants of: B2
Details: with tlr3_human TLR3, O15455

effect of a mutation on the interaction | Variant
disrupting interaction strength | MEAEPPLYPMAGAAGPQGDEDLLGVPDGPEAPLDELVGAYPNYNEEEEERRYYRRKRLGVLKNVLAASAGGMLTYGVYLGLLQMQLILHYDETYREVKYGNMGLPDIDSKMLMGINVTPIAALLYTPVLIRFFGTKWMMFLAVGIYALFVSTNYWERYYTLVPSAVALGMAIVPLWASMGNYITRMAQKYHEYSHYKEQDGQGMKQRPPRGSHAPYLLVFQAIFYSFFHLSFACAQLPMIYFLNHYLYDLNHTLYNVQSCGTNSHGILSGFNKTVLRTLPRSGNLIVVESVLMAVAFLAMLLVLGLCGAAYRPTEEIDLRSVGWGNIFQLPFKHVRDYRLRHLVPFFIYSGFEVLFACTGIALGYGVCSVGLERLAYLLVAYSLGASAASLLGLLGLWLPRPVPLVAGAGVRLLLTFILFFWAPVPRVLQHSWILYVAAALWGVGSALNKTGLSTLLGILYEDKERQDFIFTIYHWWQAVAIFTVYLGSSLHMKAKLAVLLVTLVAAAVSYLRMEQKLRRGVAPRQPRIPRPQHKVRGYRYLEEDNSDESDAEGEHGDGAEEEAPPAGPRPGPEPAGLGRRPCPYEQAQGGDGPEEQ [H412R]

Reference: IntAct's records for PubMed 22164301
